Laboratory results: doi:10.1101/2024.04.22.590578

Target: SARS-CoV-2 main protease (M^pro), wild type (SARS-CoV-2)
Assay: crystal structure

## SARS-CoV-2 main protease (M^pro), wild type (enzyme)
  stoichiometry N: 2
